Source: patent US20090031441A1 (NATIONAL UNIVERSITY CORPORATION NAGOYA UNIVERSITY, published 2009)

Biological target: T1, RGA (Arabidopsis DELLA protein), yeast two-hybrid prey in pGADT7 AD vector (Arabidopsis, UniProt Q9SLH3 1-587)
T1 construct: also called AtDELLA
T1 sequence (looked up): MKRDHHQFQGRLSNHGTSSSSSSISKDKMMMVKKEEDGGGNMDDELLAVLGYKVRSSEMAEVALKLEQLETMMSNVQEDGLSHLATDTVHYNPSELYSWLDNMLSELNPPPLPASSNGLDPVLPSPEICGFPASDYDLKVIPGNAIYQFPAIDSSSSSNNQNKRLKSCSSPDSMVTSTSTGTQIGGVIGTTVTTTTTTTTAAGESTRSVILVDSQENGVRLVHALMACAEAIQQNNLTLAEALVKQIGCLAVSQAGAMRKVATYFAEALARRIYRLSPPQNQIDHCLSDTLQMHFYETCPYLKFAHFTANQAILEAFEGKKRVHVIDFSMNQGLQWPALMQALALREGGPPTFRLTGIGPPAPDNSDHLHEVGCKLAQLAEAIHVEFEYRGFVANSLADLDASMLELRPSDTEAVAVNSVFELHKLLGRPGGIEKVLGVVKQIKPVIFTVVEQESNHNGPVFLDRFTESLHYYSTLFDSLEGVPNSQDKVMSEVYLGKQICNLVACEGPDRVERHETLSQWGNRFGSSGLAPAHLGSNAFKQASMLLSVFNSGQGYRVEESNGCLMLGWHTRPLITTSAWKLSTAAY
Assay: yeast two-hybrid Assay B (beta-galactosidase), GA4 dose response 10^-5 to 10^-9 M
Experimental: Each AtGID1 was used as a bait while AtDELLA was a prey. GA₄ (10⁻⁵ M) was added to the medium. The bars indicates β-galactosidase activity when o-nitrophenol-β-D-galactopyranoside was used as a substrate (Assay B). The growth of each transformant in the defined medium for 2 days (Assay A) is shown beneath of each bar graph. The experiment was carried out in quadruplicate. The SD value shown in the figure was determined from three measurements. Panel B) depicts the dose response in AtGID1-RGA interaction in Assay B of Y2H. GA₄ (10⁻⁵ to 10⁻⁹ M) was added to the medium. The experiment was conducted in duplicates. The SD value shown in the figure was determined from three measurements. Panel C) depicts the results of an evaluation of the in vitro GA-binding potency of AtGID1 using AtDELLA. Left panel, 15 minutes after mixing AtGID1c (C), tritiated GA, with an excess amount of non-labeled GA (+) or without non-labeled GA (−). GAI (G) or RGA (R) was added, and then the GA-binding activity in each reaction mixture was measured according to the standard method. Recombinant protein originating from the vector (v) was used as a negative control. The experiment was carried out in duplicates. The SD value was determined from three measurements. Right panel, a profile of Western blotting for recombinant AtDELLA using an antibody to His tag. G, GAI; R, RGA; v, vector; M, molecular weight marker. […]

binding result: binds
B1: AtGID1b (At3g63010), yeast two-hybrid bait in pGBKT7 DNA-BD vector (receptor, not shown: small tags and cut ends)
chain: MAGGNEVNLNECKRIVPLNTWVLISNFKLAYKVLRRPDGSFNRDLAEFLDRKVPANSFPLDGVFSFDHVDSTTNLLTRIYQPASLLHQTRHGTLELTKPLSTTEIVPVLIFFHGGSFTHSSANSAIYDTFCRRLVTICGVVVVSVDYRRSPEHRYPCAYDDGWNALNWVKSRVWLQSGKDSNVYVYLAGDSSGGNIAHNVAVRATNEGVKVLGNILLHPMFGGQERTQSEKTLDGKYFVTIQDRDWYWRAYLPEGEDRDHPACNPFGPRGQSLKGVNFPKSLVVVAGLDLVQDWQLAYVDGLKKTGLEVNLLYLKQATIGFYFLPNNDHFHCLMEELNKFVHSIEDSQSKSSPVLLTP
notes: Bait fusion for the Y2H assays; also called Arabidopsis GID1
